Experimental data reported in IntAct's records for PubMed 21965663.

Biological target: dyr1a_mouse Dyrk1a (UniProt Q61214)

Chain of Calcipressin-1 (Homo sapiens), P53805-2 T192A (P53805 other isoform, or with tags, fused parts or gaps T192A): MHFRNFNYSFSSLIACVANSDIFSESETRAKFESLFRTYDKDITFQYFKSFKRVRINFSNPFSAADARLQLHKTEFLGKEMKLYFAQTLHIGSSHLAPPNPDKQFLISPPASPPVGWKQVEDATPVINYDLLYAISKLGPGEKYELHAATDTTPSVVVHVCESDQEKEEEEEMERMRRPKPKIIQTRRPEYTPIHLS
Chain of Calcipressin-1 (Homo sapiens), P53805-2 S112A (P53805 other isoform, or with tags, fused parts or gaps S112A): as the sequence (P53805 other isoform, or with tags, fused parts or gaps T192A) above
Chain of Calcipressin-1 (Homo sapiens), P53805-2 S112A;T192A (P53805 other isoform, or with tags, fused parts or gaps S112A;T192A): as the sequence (P53805 other isoform, or with tags, fused parts or gaps T192A) above

Substance | effect of a mutation on the interaction
Calcipressin-1 (Homo sapiens), P53805-2 T192A | decreasing interaction
Calcipressin-1 (Homo sapiens), P53805-2 S112A | decreasing interaction
Calcipressin-1 (Homo sapiens), P53805-2 S112A;T192A | disrupting interaction
